assay: soluble on expression in E. coli; label from the status in PepcDB or PDB records

Soluble on expression in E. coli, not soluble:
MGSDKIHHHHHHMKHLSLEALRSFSAVIELGSMTLAGERMGRSQPAISLQLKKLEQQLGVELLTRQGSGFALTADGDVLFDYAQRMLALNDQAWAQFEPQQVSGKVRLGITSEFASSLLPKVLGQFAQVYPQVTLQVTSALSKDLLSGLGQQFDIILALREQTNKSDVLIQREELVWVGLPGLLEQPGWPMVVAPEGCIYRRRAEQSLQRAHQPYRITYTNTDFSGLTAALNSGLGITVLAKSTVPKDIPILESFSDNKPLPNPGSVNVIMRLAGGASSAASQLADYLKARI
MGSDKIHHHHHHMKKLIAIDLDGTLLNEKSTISEENTESLQRAQEAGMEVVIATGRAYFDVIDLLKPTGMHPWVIGANGATIHDPTGRRLLSIPLEHKQAIEILHWLEGKHFYYEVFSDEAIFTPQNGRELLAIEMDRLVSANPQTDLGTLSQAAAKQFSQTGFSYVSSYRDLLDTEVNIYNILAFSFDDQKLAKGWDRFKQTDNVTLVTSAEHNFELEHPLASKGNALTWLAKHLHIPLEHTVAIGDSMNDYSMITIAGYSIAMGNARAEIKQISHEVTLSNYEHGVSHSIERLLAAKRLGQN
MGSDKIHHHHHHMIPYNQSSVSTLQTKERKIDVFSVEGNVDNETVKSFGEEWTAFDSFNETEIYNAGDNYFDIVPETILKHITNALDVGCGTGRWSYYLSEKVGFIECIDPSEAVIAASSLLSGKNNIRISKAGVDNIPFADGTFDFVFSLGVLHHVPDTKKAVHACVQKLKMNGHILLYLYYNLENRGLIFKTLFHLSNSLRWMVSKLPGAIKRFVCDLLAIVIYMPFVIVSRILIKLNLAASVVSRVPLSWYADKSFNIIRNDSLDRFGTPLEQRFSKQQITDMLIHAGCTDIVFADNAPFWRVIAKKK
MGSDKIHHHHHHVNVPTEFDINVLRADFDKTRLPRSRAQQMPGKMYTSSEVAALEKKRIFMDTWLCAGREEEIANPGDYMTREIASEPFVLSRDKEGKVHAFLNMCLHRGVPVAEGSGNARGFSCPYHAWYYDLQGTLLAAPLMEQSEANLKNCRLKPMRLALWRGWIFVSFNPDAMPFETFIAPFEENLWWFKSDECRLSERVVLQIDCNWKLLVENLIDIYHVPVLHKASFGGFLKSDKEKLSFNLLPRGGWYYEQKARPHSKSGQQLFPTLPWLEGMDSGTSMKAGIFPNLNLSLRFDSLRMWQVWPTSTGKSELHLYSLFMPAAFEDPDFQKHYEEYKSFLLGAIVNEDGPMVVKLQQAMGSEFYAPGPLSHLEGAVHHLMNYYLDVVSGEDRND
MLEGVVRRREGPDYTVRIKPVARSRILTLPDAPERSSPVIVGIDPGITTGLAVLDINGRLLHAESSKSLDRSRVTEIVYGLGRPVIVAVDVADPPETAKKLAAQWGAMLYTPPADLTTSEKWGLARRVLGSSVEDTHVRDLEHHHHHH
RWITATDWASLPQTADTPALILFHGLEGGSASRYAQSIAHYFRARGWIVVIAHFRGCSGVPNRLARAYYSGDSAEVGFMLDTVRARIPHARWHAVGVSLGGNALLKYLGEHHDEASWLAAAAGVSVPLDLVAGGKALCTGFIARRIYTAYFLKTMRRKVLEKAKRFPGAIDVIRIAHARDLRDFDDAYTARMHGYRNALDYWTRASSKPWLAHIKTPTLVLNARNDPFLPESALPIPAECSDSVLLHQPAEGGHAGFPTGPFPAHLNWLPQRLG
MGSDKIHHHHHHDLDGAITTPAAVELALNGIYYSLPGNGFNVIFPTVSGSFKAGTMWRQEIVSAGNAVYYSERMLPTLSFSDATEWDADYAVIKNANFLETACNRMSDGEFSGNRRAEVLGEIAYLRALAYFNILVRYCEFWDMNSEYGVVMRNEAPSVSNALKARSSVADSYQYILDQLEIAIEKAPDWKKLSQASKEAAKALKARVLLYAGKYTEAVAAVNDAIDTNSPLPEANYGDVFDKFSTTKEILFARVFDQKDATNTSTRQQCYGNSPTKKQGYWGPTNEYVELVGDDPRADAIFSKVDSLMDSRSSAVAYNLKSVKKLLNDANDMPVIFSRVSELYLIKAEALYRSGASISEAYAPIRKLRERAGAEIILPANNEELETAIFNEWMLELSFENWHEWFAMIRFAGYTEKPDFTRLLALNKTLREALEKEYEKSEAQGDNYYQRIIDRRIDAIPSSEISSNLECKQNPGY
